Reference: paper PMC4720780, “Fruit Ripening Regulation of α-Mannosidase Expression by the MADS Box Transcription Factor RIPENING INHIBITOR and Ethylene”

Biological target: RIN (RIPENING INHIBITOR, MADS box) (Solanum lycopersicum, UniProt Q8S4L4 1-242)
Experiment: EMSA; 10 mM MgCl2; 20 mM HEPES pH 7.5, 20% glycerol, 0.05 ug poly(dI-dC), 10 mM MgCl2, 2.5 mM EDTA, 2.5 mM DTT, 25 mM NaCl, 25 C, 30 min; 6% native PAGE 0.5x TBE
Conditions: protein: recombinant; chain copies: 2; label: 32P (alpha-32P dCTP Klenow fill-in); filled-in ends

Chain of RIN (RIPENING INHIBITOR, MADS box) (Q8S4L4 entry or part of it): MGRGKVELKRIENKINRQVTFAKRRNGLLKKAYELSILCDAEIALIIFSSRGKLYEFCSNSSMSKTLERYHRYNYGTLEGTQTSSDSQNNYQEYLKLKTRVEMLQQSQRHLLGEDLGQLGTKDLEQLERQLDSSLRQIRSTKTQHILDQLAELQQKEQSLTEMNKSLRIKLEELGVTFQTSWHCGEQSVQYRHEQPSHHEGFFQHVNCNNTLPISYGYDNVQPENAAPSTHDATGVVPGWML

B1: alpha-Man promoter fragment MD4 (187 bp) (dsDNA)
DNA 1: GAAGACTTCACAAATCTTGATTTTTGAATACGACCCTTTAGTATTAAGTTTTCCAATTAATCTTGTAGGTCCATTGGCTTTGATTCCCTTTCTTGATTTATCTACAAAAATTTAGGCTATTTATAGAGATTTGGGGTTTATGGTTTAGTACATTCTCTTTCAGTGAACACTCTCAGCAATGGTGGAA
DNA 2: TTCCACCATTGCTGAGAGTGTTCACTGAAAGAGAATGTACTAAACCATAAACCCCAAATCTCTATAAATAGCCTAAATTTTTGTAGATAAATCAAGAAAGGGAATCAAAGCCAATGGACCTACAAGATTAATTGGAAAACTTAATACTAAAGGGTCGTATTCAAAAATCAAGATTTGTGAAGTCTTC
- binding result: binds
